Drawing on patent US20110008356A1, this text covers Kd for two substances.

This assay deals with Human IL-17RC:Fc (human) (UniProt Q8NAC3). The assay can be described thus: SPR (BIAcore 3000), receptor:Fc captured by anti-human Fc, cytokine as analyte, koff/kon, 1:1 Langmuir fit.

Human IL-17A, sequence (Q16552 20-155 limits assumed): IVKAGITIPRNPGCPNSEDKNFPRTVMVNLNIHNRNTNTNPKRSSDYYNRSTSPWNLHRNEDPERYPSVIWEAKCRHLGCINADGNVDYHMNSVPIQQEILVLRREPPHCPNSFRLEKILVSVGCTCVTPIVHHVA

As to “Mouse IL-17F (from UniProt Q7TNI7 29-161) (ligand)”, the Kd worked out at 0.03 nM.

In turn, “Human IL-17A (from UniProt Q16552 20-155) (ligand)” had a dissociation constant Kd of 0.05 nM.
